Publication PMC3922039

Biological target: Mboumar-9 transposase (T216A) (Messor bouvieri)
Assay: SEC; analytical size-exclusion chromatography of DNA-free transposase on Superdex 200 at 4 °C; 5.7 uM in 50 uL of 20 mM PIPES pH 6.8, 500 mM NaCl, 5 mM MgCl2, 1 mM DTT; flow 0.5 mL/min

stoichiometry N: 2
Substance: Mboumar-9 transposase (T216A) (enzyme)
